Measured values taken from publication PMC6804253, “Predicting and Experimentally Validating Hot-Spot Residues at Protein–Protein Interfaces” (ACS Chemical Biology, 2019).
Residue numbers refer to the chain shown, from its start.

B1: 1IAR EA19A (protein, UniProt P05112 25-153, looked up, variant E19A)
Interleukin-4: HKCDITLQEIIKTLNSLTAQKTLCTELTVTDIFAASKNTTEKETFCRAATVLRQFYSHHEKDTRCLGATAQQFHRHKQLIRFLKRLDRNLWGLAGLNSCPVKEANQSTLENFLERLKTIMREKYSKCSS
B2: 1IAR RA85A (protein, UniProt P05112 25-153, looked up, variant R85A)
Interleukin-4: B1 Interleukin-4 with A19E, R85A
B3: 1IAR RA81A (protein, UniProt P05112 25-153, looked up, variant R81A)
Interleukin-4: B1 Interleukin-4 with A19E, R81A
B4: 1IAR KA84A (protein, UniProt P05112 25-153, looked up, variant K84A)
Interleukin-4: B1 Interleukin-4 with A19E, K84A
B5: 1IAR KA77A (protein, UniProt P05112 25-153, looked up, variant K77A)
Interleukin-4: B1 Interleukin-4 with A19E, K77A
B6: 1EMV DA26A (protein, UniProt P13479 1-86, looked up, variant D26A)
Colicin-E9 immunity protein: MELKHSISDYTEAEFLQLVTTICNAATSSEEELVKLVTHFEEMTEHPSGSDLIYYPKEGDDDSPSGIVNTVKQWRAANGKSGFKQG
B7: 1EMV EA41A (protein, UniProt P13479 1-86, looked up, variant E41A)
Colicin-E9 immunity protein: B6 Colicin-E9 immunity protein with A26D, E41A
B8: 1EMV DA60A (protein, UniProt P13479 1-86, looked up, variant D60A)
Colicin-E9 immunity protein: B6 Colicin-E9 immunity protein with A26D, D60A
B9: 1EMV DA51A (protein, UniProt P13479 1-86, looked up, variant D51A)
Colicin-E9 immunity protein: B6 Colicin-E9 immunity protein with A26D, D51A
B10: 1EMV HA46A (protein, UniProt P13479 1-86, looked up, variant H46A)
Colicin-E9 immunity protein: B6 Colicin-E9 immunity protein with A26D, H46A
B11: 1EMV EA31A (protein, UniProt P13479 1-86, looked up, variant E31A)
Colicin-E9 immunity protein: B6 Colicin-E9 immunity protein with A26D, E31A
B12: 1EMV EA32A (protein, UniProt P13479 1-86, looked up, variant E32A)
Colicin-E9 immunity protein: B6 Colicin-E9 immunity protein with A26D, E32A
B13: 1KTZ RA25A (protein, UniProt P10600 301-412, looked up, variant R25A)
Transforming growth factor …: ALDTNYCFRNLEENCCVRPLYIDFAQDLGWKWVHEPKGYYANFCSGPCPYLRSADTTHSTVLGLYNTLNPEASASPCCVPQDLEPLTILYYVGRTPKVEQLSNMVVKSCKCS
B14: 1KTZ RA94A (protein, UniProt P10600 301-412, looked up, variant R94A)
Transforming growth factor …: B13 Transforming growth factor … with A25R, R94A
B15: 1JRH KI47A (protein, UniProt P15260 18-245, looked up, variant K47A)
extracellular domain: EMGTADLGPSSVPTPTNVTIESYNMNPIVYWEYQIMPQVPVFTVEVANYGVKNSEWIDACINISHHYCNISDHVGDPSNSLWVRVKARVGQKESAYAKSEEFAVCRDGKIGPPKLDIRKEEKQIMIDIFHPSVFVNGDEQEVDYDPETTCYIRVYNVYVRMNGSEIQYKILTQKEDDCDEIQCQLAIPVSSLNSQYCVSAEGVLHVWGVTTEKSKEVCITIFNSSIKG
modifications: extracellular domain
B16: 1JRH KI98A (protein, UniProt P15260 18-245, looked up, variant K98A)
extracellular domain: B15 extracellular domain with A47K, K98A
modifications: extracellular domain
B17: 1JRH KI52A (protein, UniProt P15260 18-245, looked up, variant K52A)
extracellular domain: B15 extracellular domain with A47K, K52A
modifications: extracellular domain
B18: 1JRH RI84A (protein, UniProt P15260 18-245, looked up, variant R84A)
extracellular domain: B15 extracellular domain with A47K, R84A
modifications: extracellular domain
B19: 1DFJ EI202A (protein, UniProt P10775 1-456, looked up, variant E202A)
Ribonuclease inhibitor: MNLDIHCEQLSDARWTELLPLLQQYEVVRLDDCGLTEEHCKDIGSALRANPSLTELCLRTNELGDAGVHLVLQGLQSPTCKIQKLSLQNCSLTEAGCGVLPSTLRSLPTLRELHLSDNPLGDAGLRLLCEGLLDPQCHLEKLQLEYCRLTAASCEPLASVLRATRALKELTVSNNDIGEAGARVLGQGLADSACQLETLRLANCGLTPANCKDLCGIVASQASLRELDLGSNGLGDAGIAELCPGLLSPASRLKTLWLWECDITASGCRDLCRVLQAKETLKELSLAGNKLGDEGARLLCESLLQPGCQLESLWVKSCSLTAACCQHVSLMLTQNKHLLELQLSSNKLGDSGIQELCQALSQPGTTLRVLCLGDCEVTNSGCSSLASLLLANRSLRELDLSNNCVGDPGVLQLLGSLEQPGCALEQLVLYDTYWTEEVEDRLQALEGSKPGLRVIS
B20: 1DFJ EI283A (protein, UniProt P10775 1-456, looked up, variant E283A)
Ribonuclease inhibitor: B19 Ribonuclease inhibitor with A202E, E283A
B21: 1DFJ EI397A (protein, UniProt P10775 1-456, looked up, variant E397A)
Ribonuclease inhibitor: B19 Ribonuclease inhibitor with A202E, E397A
B22: 1DFJ EI340A (protein, UniProt P10775 1-456, looked up, variant E340A)
Ribonuclease inhibitor: B19 Ribonuclease inhibitor with A202E, E340A
B23: 1DFJ DI431A (protein, UniProt P10775 1-456, looked up, variant D431A)
Ribonuclease inhibitor: B19 Ribonuclease inhibitor with A202E, D431A
B24: 1DFJ KI316A (protein, UniProt P10775 1-456, looked up, variant K316A)
Ribonuclease inhibitor: B19 Ribonuclease inhibitor with A202E, K316A
B25: 1DFJ RI453A (protein, UniProt P10775 1-456, looked up, variant R453A)
Ribonuclease inhibitor: B19 Ribonuclease inhibitor with A202E, R453A

Tested on: PPIs of the SKEMPI data set (by PDBID)
Experiment: SKEMPI experimental ΔΔG, single mutations to alanine
Assay type: binding
Details: class by the 4.184 kJ/mol threshold; r_group DERKH

Row | Molecule | sk_class (class of the SKEMPI experimental ΔΔG)
1 | B1 | Neutral (neutral (little effect) 4.184 kJ/mol < ΔΔG > −4.184 kJ/mol)
2 | B2 | Neutral (neutral (little effect) 4.184 kJ/mol < ΔΔG > −4.184 kJ/mol)
3 | B3 | Neutral (neutral (little effect) 4.184 kJ/mol < ΔΔG > −4.184 kJ/mol)
4 | B4 | Neutral (neutral (little effect) 4.184 kJ/mol < ΔΔG > −4.184 kJ/mol)
5 | B5 | Neutral (neutral (little effect) 4.184 kJ/mol < ΔΔG > −4.184 kJ/mol)
6 | B6 | Neutral (neutral (little effect) 4.184 kJ/mol < ΔΔG > −4.184 kJ/mol)
7 | B7 | Positive (positive (a hot residue) ΔΔG ≥ 4.184 kJ/mol)
8 | B8 | Neutral (neutral (little effect) 4.184 kJ/mol < ΔΔG > −4.184 kJ/mol)
9 | B9 | Positive (positive (a hot residue) ΔΔG ≥ 4.184 kJ/mol)
10 | B10 | Neutral (neutral (little effect) 4.184 kJ/mol < ΔΔG > −4.184 kJ/mol)
11 | B11 | Neutral (neutral (little effect) 4.184 kJ/mol < ΔΔG > −4.184 kJ/mol)
12 | B12 | Neutral (neutral (little effect) 4.184 kJ/mol < ΔΔG > −4.184 kJ/mol)

Same assay, conditions: class of the SKEMPI experimental ΔΔG

Row | Molecule | sk_class
13 | B13 | Positive (positive (a hot residue) ΔΔG ≥ 4.184 kJ/mol)
14 | B14 | Positive (positive (a hot residue) ΔΔG ≥ 4.184 kJ/mol)
15 | B15 | Positive (positive (a hot residue) ΔΔG ≥ 4.184 kJ/mol)
16 | B16 | Neutral (neutral (little effect) 4.184 kJ/mol < ΔΔG > −4.184 kJ/mol)
17 | B17 | Positive (positive (a hot residue) ΔΔG ≥ 4.184 kJ/mol)
18 | B18 | Positive (positive (a hot residue) ΔΔG ≥ 4.184 kJ/mol)

Same assay, conditions: class of the SKEMPI experimental ΔΔG; ref SKEMPI

Row | Molecule | sk_class
19 | B19 | Positive (positive (a hot residue) ΔΔG ≥ 4.184 kJ/mol)
20 | B20 | Positive (positive (a hot residue) ΔΔG ≥ 4.184 kJ/mol)
21 | B21 | Positive (positive (a hot residue) ΔΔG ≥ 4.184 kJ/mol)
22 | B22 | Positive (positive (a hot residue) ΔΔG ≥ 4.184 kJ/mol)
23 | B23 | Positive (positive (a hot residue) ΔΔG ≥ 4.184 kJ/mol)
24 | B24 | Positive (positive (a hot residue) ΔΔG ≥ 4.184 kJ/mol)
25 | B25 | Neutral (neutral (little effect) 4.184 kJ/mol < ΔΔG > −4.184 kJ/mol)

Tested on: PPIs of the SKEMPI data set (by PDBID)
Experiment: not given
Details: SKEMPI experimental ΔΔG of binding, single mutation to alanine; complex by PDBID; ref SKEMPI; cited from earlier work

Row | Molecule | sk_ddG_kJ [kJ]
26 | B19 | 4.27
27 | B20 | 5.52
28 | B21 | 5.48
29 | B22 | 6.57
30 | B23 | 15.31
31 | B24 | 5.44
32 | B25 | 3.56

Same assay, conditions: sheet sortedByGroup, r_group DERKH; complex given by PDBID; ref SKEMPI; cited from earlier work

Row | Molecule | sk_ddG_kJ (SKEMPI experimental ΔΔG, single mutation to alanine) [kJ]
33 | B13 | 6.19
34 | B14 | 12.05
35 | B15 | 16.11
36 | B16 | 2.80
37 | B17 | 15.86
38 | B18 | 4.31

Same assay, conditions: single mutation to alanine, complex by PDBID; sheet sortedByGroup, r_group DERKH; ref SKEMPI; cited from earlier work

Row | Molecule | sk_ddG_kJ (SKEMPI experimental ΔΔG, mutation to alanine) [kJ]
39 | B1 | -1.34
40 | B2 | 1.80
41 | B3 | 2.01
42 | B4 | 1.46
43 | B5 | 0.63
44 | B6 | 1.42
45 | B7 | 8.70
46 | B8 | 2.13
47 | B9 | 24.77
48 | B10 | 3.47
49 | B11 | 1.30
50 | B12 | 0.92
